The chains are these.
T1: human C1s (human, UniProt P09871 16-688)
T1 construct: Analyte in the Biacore assays; also called hC1s; serum-derived human C1s (CompTech)
T1 sequence: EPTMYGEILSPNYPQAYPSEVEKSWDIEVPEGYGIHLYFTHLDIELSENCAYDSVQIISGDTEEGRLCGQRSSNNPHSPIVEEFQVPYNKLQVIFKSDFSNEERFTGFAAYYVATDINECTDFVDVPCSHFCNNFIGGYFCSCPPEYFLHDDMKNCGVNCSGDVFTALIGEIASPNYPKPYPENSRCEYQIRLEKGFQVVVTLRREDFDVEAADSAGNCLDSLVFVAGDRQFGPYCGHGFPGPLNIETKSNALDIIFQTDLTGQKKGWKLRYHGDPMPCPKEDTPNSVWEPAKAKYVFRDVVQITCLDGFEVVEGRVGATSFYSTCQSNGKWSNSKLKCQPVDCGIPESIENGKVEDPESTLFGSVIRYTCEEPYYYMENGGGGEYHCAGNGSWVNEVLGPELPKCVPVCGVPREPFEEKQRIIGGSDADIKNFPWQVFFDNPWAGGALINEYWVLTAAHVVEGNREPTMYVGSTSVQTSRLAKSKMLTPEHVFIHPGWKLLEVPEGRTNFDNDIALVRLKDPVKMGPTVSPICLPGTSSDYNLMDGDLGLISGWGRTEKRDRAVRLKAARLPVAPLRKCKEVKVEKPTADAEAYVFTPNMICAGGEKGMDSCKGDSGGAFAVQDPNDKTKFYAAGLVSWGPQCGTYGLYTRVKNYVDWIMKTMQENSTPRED

B1: C1_IPN92H0193-SG4GK/IPN93L0024-SK1 (antibody, human IgG4 S228P, kappa, name in Kabat numbering, V domains shown)
VH: EVMLVESGGGLVKPGGSLRLSCAASGFTFSNYAMSWVRQAPGKGLEWVATISSGGSHTYYLDSVKDRFTISRDNSKDTLYLQMNSLRAEDTALYYCARLFTGHAMDYWGQGTLVTVSS
VL: QIVLTQSPATLSLSPGERATLSCTASSSVSSSYLHWYQQKPGKAPKLWIYSTSNLASGVPSRFSGSGSGTDYTLTISSLQPEDFATYYCHQYYRLHPITFGQGTKLEIKR
notes: Substitutions from IPN009VH2, Kabat numbering; also called IPN92H0193/IPN93L0024
B2: C1_IPN92H0286-SG4GK/IPN93L0205-SK1 (antibody, human IgG4 S228P, kappa, name in Kabat numbering)
heavy: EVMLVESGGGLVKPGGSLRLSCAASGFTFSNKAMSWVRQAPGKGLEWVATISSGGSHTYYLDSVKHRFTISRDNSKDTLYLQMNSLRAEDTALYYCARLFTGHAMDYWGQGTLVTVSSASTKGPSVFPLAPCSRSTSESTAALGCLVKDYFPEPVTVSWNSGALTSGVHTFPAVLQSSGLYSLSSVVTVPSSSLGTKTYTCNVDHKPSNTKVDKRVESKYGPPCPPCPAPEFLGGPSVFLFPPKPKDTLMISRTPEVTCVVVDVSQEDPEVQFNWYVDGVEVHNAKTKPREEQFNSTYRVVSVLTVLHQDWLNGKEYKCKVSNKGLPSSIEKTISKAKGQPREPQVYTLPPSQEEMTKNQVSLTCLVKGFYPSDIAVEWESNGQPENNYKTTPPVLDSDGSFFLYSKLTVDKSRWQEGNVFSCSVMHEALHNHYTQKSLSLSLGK
light: QIVLTQSPATLSLSPGERATLSCTASSSVSSSRLHWYQQKPGKAPKLWIYSTSNLASGVPSRFSGSGSGTDYTLTISSLQPEDFATYYCHQYHRHPPITFGQGTKLEIKRTVAAPSVFIFPPSDEQLKSGTASVVCLLNNFYPREAKVQWKVDNALQSGNSQESVTEQDSKDSTYSLSSTLTLSKADYEKHKVYACEVTHQGLSSPVTKSFNRGEC
notes: Substitutions from IPN009VH2 / IPN009VK3, Kabat numbering; also called IPN92H0286/IPN93L0205
B3: C1_IPN92H0281-SG4GK/IPN93L0091-SK1 (antibody, human IgG4 S228P, kappa, name in Kabat numbering, V domains shown)
VH: B1 VH with H57K, Y60E, K65D, D66E, G102K
VL: B1 VL with Y33R
notes: Substitutions from IPN009VH2 / IPN009VK3, Kabat numbering; also called IPN92H0281/IPN93L0091
B4: C1_IPN92H0232-SG4GK/IPN93L0024-SK1 (antibody, human IgG4 S228P, kappa, name in Kabat numbering, V domains shown)
VH: B1 VH with D66G, G102R
VL: B1 VL
notes: Substitutions from IPN009VH2, Kabat numbering; also called IPN92H0232/IPN93L0024
B5: C1_IPN92H0194-SG4GK/IPN93L0024-SK1 (antibody, human IgG4 S228P, kappa, name in Kabat numbering, V domains shown)
VH: B1 VH with D66E
VL: B1 VL
notes: Substitutions from IPN009VH2, Kabat numbering; also called IPN92H0194/IPN93L0024
B6: C1_IPN92H0279-SG4GK/IPN93L0091-SK1 (antibody, human IgG4 S228P, kappa, name in Kabat numbering, V domains shown)
VH: B1 VH with Y60E, D66E, G102K
VL: B1 VL with Y33R
notes: Substitutions from IPN009VH2 / IPN009VK3, Kabat numbering; also called IPN92H0279/IPN93L0091
B7: C1_IPN92H0282-SG4GK/IPN93L0024-SK1 (antibody, human IgG4 S228P, kappa, name in Kabat numbering, V domains shown)
VH: B1 VH with Y60E, K65D, D66E, G102K
VL: B1 VL
notes: Substitutions from IPN009VH2, Kabat numbering; also called IPN92H0282/IPN93L0024
B8: C1_IPN92H0261-SG4GK/IPN93L0091-SK1 (antibody, human IgG4 S228P, kappa, name in Kabat numbering, V domains shown)
VH: B1 VH with Y60E, D66G, G102K
VL: B1 VL with Y33R
notes: Substitutions from IPN009VH2 / IPN009VK3, Kabat numbering; also called IPN92H0261/IPN93L0091
B9: C1_IPN92H0282-SG4GK/IPN93L0091-SK1 (antibody, human IgG4 S228P, kappa, name in Kabat numbering, V domains shown)
VH: B1 VH with Y60E, K65D, D66E, G102K
VL: B1 VL with Y33R
notes: Substitutions from IPN009VH2 / IPN009VK3, Kabat numbering; also called IPN92H0282/IPN93L0091
B10: C1_IPN92H0253-SG4GK/IPN93L0024-SK1 (antibody, human IgG4 S228P, kappa, name in Kabat numbering, V domains shown)
VH: B1 VH with D66G, D106K
VL: B1 VL
notes: Substitutions from IPN009VH2, Kabat numbering; also called IPN92H0253/IPN93L0024
B11: C1_IPN92H0281-SG4GK/IPN93L0024-SK1 (antibody, human IgG4 S228P, kappa, name in Kabat numbering)
heavy: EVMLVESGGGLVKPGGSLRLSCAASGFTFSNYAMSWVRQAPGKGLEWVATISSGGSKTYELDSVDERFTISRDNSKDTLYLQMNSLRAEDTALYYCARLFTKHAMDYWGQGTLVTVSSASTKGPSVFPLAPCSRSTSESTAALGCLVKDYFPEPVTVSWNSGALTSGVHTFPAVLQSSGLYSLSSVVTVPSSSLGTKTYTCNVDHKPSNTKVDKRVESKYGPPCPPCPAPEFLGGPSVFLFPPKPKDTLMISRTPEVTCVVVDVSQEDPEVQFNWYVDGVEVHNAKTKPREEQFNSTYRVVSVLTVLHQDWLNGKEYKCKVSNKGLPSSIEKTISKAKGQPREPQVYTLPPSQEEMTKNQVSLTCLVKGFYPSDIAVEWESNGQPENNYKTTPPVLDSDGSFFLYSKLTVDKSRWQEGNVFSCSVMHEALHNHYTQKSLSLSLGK
light: B2 light with R33Y, H93Y, H95L, P96H
notes: Substitutions from IPN009VH2, Kabat numbering; also called IPN92H0281/IPN93L0024
B12: C1_IPN92H0231-SG4GK/IPN93L0024-SK1 (antibody, human IgG4 S228P, kappa, name in Kabat numbering, V domains shown)
VH: B1 VH with D66G, G102K
VL: B1 VL
notes: Substitutions from IPN009VH2, Kabat numbering; also called IPN92H0231/IPN93L0024

Substitutions are numbered along the chain they refer to.

One experiment deals with T1, human C1s. Description: SPR (Biacore T200, 37C), Ab captured on protein A/G; pH 5.8, 1.2 mM Ca. As to the method: (§1) Each antibody was captured onto the sensor surface by protein A/G. Antibody capture levels were aimed at 200 resonance unit (RU). Serum-derived human C1s (CompTech) or recombinant C1s prepared in EXAMPLE 1 was injected at 50 nM, followed by dissociation. The sensor surface was regenerated in each cycle with 10 mM Glycine-HCl, pH 1.5. […] The ratio of KD 5.8+ to KD 7.4+(“KD 5+/7+”) and that of KD 5.8− to KD 7.4+(“KD 5−/7+”) were calculated. When the KD 5+/7+ or KD 5−/7+ of a variant is larger than that of the parent antibody IPN009VH2-SG4GK/IPN009VK3-SK1, that variant is considered to be “pH”- or “pH and Ca”-dependent, respectively. When binding response in 5(+) buffer and/or in 5(−) buffer of a variant is much lower than that of IPN09VH2/IPN009VK3, that variant is also considered as “pH”- and/or “pH and Ca”-dependent. Therefore, such mutations are effective to generate “pH”- and/or “pH and Ca”-dependent antibody. To further enhance “pH” and/or “pH and Ca” dependency, a combination of histidine mutations was conducted. Antibodies with combinations of histidine mutations were evaluated using Biacore by the method described above.
(§2) C1_1IPN92H0033 (SEQ ID NO: 17)-SG4GK/IPN93L0024 (SEQ ID NO: 18)-SK1 (IPN92H0033/IPN93L0024) was selected for further optimization. Histidine, Lysine, Arginine, aspartic acid, glutamic acid, and glutamine scanning was conducted for CDRs and certain positions of FRs of IPN92H0033/IPN93L0024. Variants with a mutation were generated and purified, and evaluated using Biacore by the method mentioned above. All variants were evaluated using Biacore as mentioned above. Mutations that improved “pH” and/or “pH and Ca” dependency were selected for the combination.
With B1, the Kd amounted to 5.74 nM, the koff was determined as 0.00417 s⁻¹ and the kon amounted to 727000 M⁻¹ s⁻¹.

Turning to B2, the Kd came to 6.57 nM, the koff amounted to 0.00346 s⁻¹ and the kon is 527000 M⁻¹ s⁻¹.

In the case of B3, the Kd was found to be 11.3 nM, the koff worked out at 0.00707 s⁻¹ and the kon is 625000 M⁻¹ s⁻¹.

Take B4: the Kd came out at 8.49 nM, the koff was determined as 0.00485 s⁻¹ and the kon amounted to 570000 M⁻¹ s⁻¹.

Regarding B5, the Kd was determined as 5.72 nM, the koff is 0.00429 s⁻¹ and the kon was determined as 751000 M⁻¹ s⁻¹.

As to B6, the Kd turned out to be 20 nM, the koff turned out to be 0.00684 s⁻¹ and the kon was 342000 M⁻¹ s⁻¹.

In the case of B7, the Kd was found to be 18 nM, the koff worked out at 0.00998 s⁻¹ and the kon was found to be 553000 M⁻¹ s⁻¹.

Turning to B8, the Kd was 16.1 nM, the koff was found to be 0.00533 s⁻¹ and the kon came out at 332000 M⁻¹ s⁻¹.

For the molecule B9, the Kd turned out to be 16.9 nM, the koff worked out at 0.00755 s⁻¹ and the kon was 445000 M⁻¹ s⁻¹.

Take B10: the Kd turned out to be 1.52 nM, the koff stood at 0.000717 s⁻¹ and the kon was 471000 M⁻¹ s⁻¹.

In the case of B11, the Kd was 23.6 nM, the koff is 0.024 s⁻¹ and the kon was 1.02e+06 M⁻¹ s⁻¹.

Regarding B12, the Kd is 9.59 nM, the koff was 0.00544 s⁻¹ and the kon was 568000 M⁻¹ s⁻¹.

A further experiment deals with T1, human C1s. Description: SPR; KD at pH 5.8 (3 uM Ca) over KD at pH 7.4 (1.2 mM Ca). As to the method:
as §1, §2
As to B1, the “KD 5(-)/7(+)” value was found to be 3.47.

Turning to B2, the “KD 5(-)/7(+)” value is 2.94.

With B3, the “KD 5(-)/7(+)” value amounted to 0.82.

In the case of B4, the “KD 5(-)/7(+)” value stood at 3.46.

B5: the “KD 5(-)/7(+)” value came to 7.29.

On to B6, for which the “KD 5(-)/7(+)” value stood at 7.54.

Turning to B7, the “KD 5(-)/7(+)” value was determined as 5.18.

As to B8, the “KD 5(-)/7(+)” value was determined as 12.3.

Regarding B9, the “KD 5(-)/7(+)” value was determined as 1.13.

For B10, the “KD 5(-)/7(+)” value stood at 210.

For B11, the “KD 5(-)/7(+)” value came out at 1.98.

Turning to B12, the “KD 5(-)/7(+)” value is 4.06.

The next experiment has as its target T1, human C1s. The experiment in a line: SPR; KD at pH 5.8 (1.2 mM Ca) over KD at pH 7.4 (1.2 mM Ca). As to the method:
as §1, §2
Regarding B1, the “KD 5(+)/7(+)” value was found to be 6.2.

On to B2, for which the “KD 5(+)/7(+)” value is 4.2.

In the case of B3, the “KD 5(+)/7(+)” value came out at 2.4.

In the case of B4, the “KD 5(+)/7(+)” value was found to be 5.7.

Turning to B5, the “KD 5(+)/7(+)” value was 6.5.

Turning to B6, the “KD 5(+)/7(+)” value came to 29.2.

Turning to B7, the “KD 5(+)/7(+)” value worked out at 10.9.

B8: the “KD 5(+)/7(+)” value came out at 16.3.

On to B9, for which the “KD 5(+)/7(+)” value is 8.6.

Turning to B10, the “KD 5(+)/7(+)” value worked out at 12.6.

In the case of B11, the “KD 5(+)/7(+)” value came out at 9.4.

B12: the “KD 5(+)/7(+)” value came out at 7.4.

A further experiment addresses T1, human C1s. Description: SPR (Biacore T200, 37C), Ab captured on protein A/G; pH 5.8, 3 uM Ca. As to the method: as §1, §2
Take B1: the Kd was 3.21 nM, the koff amounted to 0.0685 s⁻¹ and the kon worked out at 2.14e+07 M⁻¹ s⁻¹.

Take B2: the Kd came to 4.65 nM, the koff is 0.00477 s⁻¹ and the kon amounted to 1.03e+06 M⁻¹ s⁻¹.

On to B3, for which the Kd is 3.88 nM, the koff worked out at 0.00227 s⁻¹ and the kon is 585000 M⁻¹ s⁻¹.

Regarding B4, the Kd stood at 5.19 nM, the koff came out at 0.0173 s⁻¹ and the kon amounted to 3.23e+06 M⁻¹ s⁻¹.

Consider B5, for which the Kd was determined as 6.45 nM, the koff was found to be 0.00517 s⁻¹ and the kon was determined as 802000 M⁻¹ s⁻¹.

As for B6, the Kd came out at 5.17 nM, the koff was found to be 0.00611 s⁻¹ and the kon was determined as 1.18e+06 M⁻¹ s⁻¹.

Turning to B7, the Kd came out at 8.55 nM, the koff came out at 0.00327 s⁻¹ and the kon stood at 382000 M⁻¹ s⁻¹.

Turning to B8, the Kd turned out to be 12.1 nM, the koff was determined as 0.00736 s⁻¹ and the kon was 606000 M⁻¹ s⁻¹.

With B9, the Kd amounted to 2.21 nM, the koff amounted to 0.00148 s⁻¹ and the kon turned out to be 670000 M⁻¹ s⁻¹.

With B10, the Kd came out at 25.4 nM, the koff is 0.0147 s⁻¹ and the kon amounted to 578000 M⁻¹ s⁻¹.

B11: the Kd was 4.98 nM, the koff is 0.003 s⁻¹ and the kon came out at 602000 M⁻¹ s⁻¹.

Consider B12, for which the Kd was 5.28 nM, the koff was 0.00674 s⁻¹ and the kon came to 1.28e+06 M⁻¹ s⁻¹.

For the origin of these results see patent publication US20210032365A1 (Chugai, published 2021).
